Data reported in article PMC11724075, “Small-molecule-induced ERBB4 activation to treat heart failure” (Nature Communications, 2025).
Where “and” joins values, the source holds several entries; their conditions need not be identical. Equal values may be shown once.

What was measured:
Erbb4-null mice = assay: Survival of Erbb4-null mice under AngII treatment; format: in vivo, mouse; design: key to Survival probability in AngII-treated Erbb4-null mice: 0: Survived until end of experiment; 1: Died before the end of the experiment
Excerpt: Floxed Erbb4 mice (Erbb4^f/f; C57BL/6N; 129-Erbb4tm1Fej/Mmucd, MMRRC, #010439-UCD) were crossed with CAGGCre-ER^TM mice (Jackson Laboratory, 004682) containing the Tg(CAG-cre/Esr1*)5Amc transgene that expresses Cre recombinase under the control of a chicken beta actin promoter/enhancer coupled to the human cytomegalovirus immediate-early gene enhancer, resulting in expression of tamoxifen-inducible Cre-ERT in most cell types. To induce Cre recombinase-mediated deletion of Erbb4, eleven-week-old female and male iCAGGCre-ER^TM/Erbb4^f/f mice were intraperitoneally injected with tamoxifen (Merck, T5648; 10 mg/kg; in corn oil) daily for 5 consecutive days.
Statistical analysis was performed using GraphPad Prism version 10. Data are presented as the mean value of biological replicates (unless stated otherwise) ± SD. Data was checked for normality using the Shapiro–Wilk normality test. […]
Supplementary Figure 6. […] (a) Representative images of Masson’s trichrome staining of AngII-induced myocardial fibrosis following treatment with NA-1 and corresponding graphs showing the quantitation for total and perivascular fibrosis in male mice (n=5 male mice in Ctrl and AngII/Veh group, n=4 male mice in AngII/NA-1 group). […]

HCFs = assay: In vitro collagen expression: COL3A1 mRNA in HCFs stimulated with TGF-β1; format: cell-based, human
Method: HCFs were seeded at a density of 1.5 ×10^5 cells/well in doxycycline-free medium in 12-well plates (Greiner Bio-One, 665180) and incubated overnight. […] Compounds were pre-incubated for 10 min before addition of TGF-β1.
RNA was extracted using Nucleospin RNA XS (Macherey-Nagel, 740902.50) according to the manufacturer’s instructions. For cDNA synthesis, total RNA was added to a mixture containing buffer with random hexamers and reverse transcriptase enzyme (TaqMan reverse transcription reagents, Applied biosystems, N8080234) after which samples were incubated for 10 min at 25 °C, 30 min at 48 °C, and 5 min at 95 °C. RT-qPCR was performed on QuantStudio 3 Real-time PCR system (Applied Biosystems) using Taqman Universal PCR Master Mix (Applied Biosystems, 4304437) and Taqman primers according to the manufacturer’s instructions. Settings were as follows: […] followed by 10 min at 95 °C, 40 cycles (45 cycles for ERBB4) of denaturation at 95 °C for 15 s, and 1 min at 60 °C. All reactions were run in duplicate, and all data were normalized against housekeeping genes glyceraldehyde-3-phosphate dehydrogenase (GAPDH), beta-actin (ACTB), or phosphoglycerate kinase 1 (PGK1). Expression levels were calculated using the comparative cycle method and expressed as fold change (FC) to appropriate controls. The following TaqMan primers were used (Thermo Fisher Scientific): GAPDH (Hs02758991_g1, Mm99999915_g1 and Rn01775763_g1), PGK1 (Hs99999906_m1), ID2 (Hs04187239_m1), BMPR1B (Hs01010965_m1), CACNA2D4 (Hs00297782_m1), DUSP2 (Hs00358879_m1), NR4A1 (Hs00374226_m1), SGK1 (Hs00178612_m1), COL1A1 (Mm00801666_g1), COL3A1 (Hs00943809_m1 and Mm00802305_g1), ERBB4 (Hs00955525_m1 and Rn00572447_m1), ACTB (Mm02619580_g1) and ANP (Mm01255747_g1).

| Substance | Survival probability in AngII-treated Erbb4-null mice (Erbb4-null mice; 1000 ng/kg AngII, Erbb4-null mice, individual animals) | mortality in Erbb4-null mice (Erbb4-null mice; AngII dose of 1000 ng/kg/day) [%] | increase of COL3A1 mRNA levels in HCFs (HCFs; TGF-β1 10 ng/mL) [%] | COL3A1 mRNA expression (FC), HCF validation TGFβ (HCFs; TGFβ vs Vehicle, single replicates) |
| --- | --- | --- | --- | --- |
| angiotensin II (DRVYIHPF; Angiotensin-2; UniProt P01019 25-32, looked up) [AngII, inducer of hypertrophy in iAMs and of myocardial fibrosis in mice] | 1 and 0 | 80 | – | – |
| transforming growth factor β1 [TGF-β1, reference compound] | – | – | 36 | 1.323 and 1.4 and 1.364 |
